The results in this text go back to the supplement of paper PMC7125110.

The chains are these.
B1: glmS ribozyme (parent)
chain: AUAAAAGCGCCAGAACUACAGAAAUGUAGUUGACGAGGAGGAGGUUUAUCGAAUUUUCGGCGGAUGCCUCCAAA

± gives the standard error. This sample holds only a part of the variants without activity. A value given as a limit tells only on which side of the number the result lay.

In the first series the parent is B1. The series is described as follows: self-cleavage kobs at 2500 uM GlcN6P; higher = faster cleavage; RNA array. The settings on record: with glucosamine-6-phosphate. In outline:
(§1)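 In situ transcription by E. coli RNA polymerase produced barcoded ribozyme variants on sequenced MiSeq chips, and a hybridised Cy3 probe tracked them at 37 °C. Glucosamine-6-phosphate was flowed in at 40 μM to 10 mM in HEPES/KCl/Mg(OAc)2 buffer. kcat and KM were taken from weighted Michaelis–Menten fits of kobs values from exponential decay fits.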
Turning to AUAAAAGCGCCAGAACUACAGAAAUGUAGUUGACGAGGAGGAGGUUUAUGGAAUUUUCGUGGGAAGCCUCCAAA [C50G G60U C61G U65A], the “self-cleavage kobs at 2500 uM GlcN6P” value stood at 9.15e-05 ± 3e-05 s⁻¹.
Same read-out and setting: the value for AUAAAAGCGCCUGACCUACAGAAAUGUAGUUGACGAGGAGCAGGUUUAUCGAAUUUUCGGUGGAUACCUCCAAA [A12U A15C G41C C61U G66A] was below 1e-05 s⁻¹; that for AUAAAAGCGUCAGAACUACAGAAAUGUAGUUGACGAGGAGGAGGUUUAUCGAAUUUUCGGCGGAUGGUUCCAAA [C10U C67G C68U] was 0.000126 ± 4.8e-05 s⁻¹.
On the same count and under the same terms, the value for AUAAAAGCGCCAGAACUACAGAAAUGUAGUUGACGAGGAGGAGGUUUAUCCAAUUUUCGGCGAAUGCAUCCAAA [G51C G63A C68A] was below 1e-05 s⁻¹; that for AUAAAAGCGCGAGAACUACAGAAAUGUAGUUGACGAGUAGGUAGUUUAUCGAAUUUUCGGCGGAUGCCUCCAAA [C11G G38U A42U G43A] was below 1e-05 s⁻¹.
Same read-out and setting: the value for AUAAAAGCGCCAGAACUACAGAAAUGUAGUUGACGAGGAUGAGGUUUAUCGAAUUUUAGUCGGAUGCCUCCAAA [G40U C58A G60U] was below 1e-05 s⁻¹; that for AUAAAAGCGCCAGAACUACAGAAAUGUAUUUGACGAGGAGGAGGUUAAUCGAAUUUUCGGCGGAUGCCGCCAAA [G29U U47A U69G] was 7.38e-05 ± 1.7e-05 s⁻¹; that for AUAAAAGCGCCAGAACUACAGAAAUGUAUUUGACGUGGAGGUGGUUUAUCGAAUUGUCGGCGGAUUCCUCCAAA [G29U A36U A42U U56G G66U] was below 1e-05 s⁻¹.
Regarding AUAAAAGCGCCAGAACUACAGAAAUGUAGUUGCCGAGCAGGAGGUUUGUCGAAUUCUCGGCGGAUGCCUCCAAA [A33C G38C A48G U56C], the “self-cleavage kobs at 2500 uM GlcN6P” value was below 1e-05 s⁻¹.
The same measure, in the same setting: the value for AUAAAAGCGCCAGAACUACAGAAAUGUAGUUGGCGAGGAGGUGGUUAAUCGAGUUUUCGGCGGAUGCCUCCAAA [A33G A42U U47A A53G] was below 1e-05 s⁻¹; that for AUAAAAGCGUCAGAACUACAGAAAUGUAGUUGACGAGGAGGAGGUUUAUCGAAUUUUCGCCUGAUGCCUCCAAA [C10U G60C G62U] was below 1e-05 s⁻¹; that for AUAAAAGCGCCAGAACUACAGAAAUGUAGUUGCCGAGCAGGAGGUUUUUCGAAUUUUCGGCGGAUGCCUCCAAA [A33C G38C A48U] was below 1e-05 s⁻¹.
On the same count and under the same terms, the value for AUAAAAGCGCCAGAAUUACAGAAAUGUAGUUGACGAGGAGGAGGUGCAUCGAAUUUUCGGCGGAUGCCUUCAAA [C16U U46G U47C C70U] was 0.00139 ± 0.00038 s⁻¹; that for AUAAAAGCGCCAGAACUACAGAAAUGUAGUUGACGUGGAGGACGUUUAUCGACUUUUCGGCGGAUGCCUCGAAA [A36U G43C A53C C71G] was below 1e-05 s⁻¹.
The same measure, in the same setting: the value for AUAAAAACGCCAGAACUACAGAAAUGUAGUUGACGAGGAAGAGGUUUAUCGAUUUUUCGGCGGAUGCCUCCAAA [G7A G40A A53U] was below 1e-05 s⁻¹; that for AUAAAAGCGCCAGAUCUACAGAAAUGUAGUUGACGAGGAGGAGGUUUAUCGAAUGUUCGGCGGUUGCCUCUAAA [A15U U55G A64U C71U] was below 1e-05 s⁻¹.
As to AUAAAAGCGCCAGAACUACAGAAAUGUAGUUGACGAAGAGGAGGUUUAUCGAUUUUUCGGCGGAUUCCUCCAAA [G37A A53U G66U], the “self-cleavage kobs at 2500 uM GlcN6P” value was found to be 8.93e-05 ± 3.4e-05 s⁻¹.
In the case of AUAAAAGCGCCGGAACUACAGAAAUGUAGUUGACGAGGAGGAGGUGUAUCGAAUUUUCGGCGGAUGCCUCUAAA [A12G U46G C71U], the “self-cleavage kobs at 2500 uM GlcN6P” value worked out at 9.1e-05 ± 2.1e-05 s⁻¹.
As to AUAAAAGCGCCAGCACUACAGAAAUGUAGUUGACGACGAGGAGGUUUAUCGAAUUUUCGGCCGAUGCCUCCAAA [A14C G37C G62C], the “self-cleavage kobs at 2500 uM GlcN6P” value is below 1e-05 s⁻¹.
The same measure, in the same setting: in the case of AUAAAAGCGCCAGAACUACAGAAAUGUAUUUGACGAGCAGGAGGUUUAUCGAAUUUUCAGCGGAUGCCUCCAAA [G29U G38C G59A] it was below 1e-05 s⁻¹.
Still for that read-out and setting: in the case of AUAAAAGCGCCAGUACUACAGAAAUGUAGUUGCCGAGGAGGAGGUUUAUCGAAUGUUCGGCGGAUGCCUCCAAA [A14U A33C U55G] it was 7.4e-05 ± 2.1e-05 s⁻¹.
On the same count and under the same terms, the value for AUAAAAAUGCCAGAACUACAGAAAUGUAGUUGACGGGGAGGAGGUUUAUCGAAUUUUCGUCGGAUGCCUCCAAA [G7A C8U A36G G60U] was below 1e-05 s⁻¹; that for AUAAAAGCGCCAGAACUACAGAAAUGUAGUUGACGAGGAUGAUGUUUAUCGAAUUUUCGGCGGAUGCCUGCAAA [G40U G43U C70G] was below 1e-05 s⁻¹.
On to AUAAAAGCGCCGGAACUACAGAAAUGUAGCUGACGAGGAGGAGGUUUAUCGAAUUUUAGGCGGAUGCCUCCAAA [A12G U30C C58A], for which the “self-cleavage kobs at 2500 uM GlcN6P” value is 0.000105 ± 3.1e-05 s⁻¹.
Still for that read-out and setting: the value for AUAAAAGCGCCAGAACUACAGAAAUGUAGUUGAUGAGGAGGAGGUUUAUCGAAUUUUUGACGGAUGCCUCCAAA [C34U C58U G60A] was below 1e-05 s⁻¹; that for AUAAAAGCGCCAGAACUACAGAAAUGUAGAUGACGAGGAGGAGGUUUAUCGAAUUUUCGGCGGAUGCGUCCAAA [U30A C68G] was 7.09e-05 ± 1.5e-05 s⁻¹; that for AUAAAAGCGCCAGCACUACAGAAAUGUAGUUGACAAGGAGGAGGUUUAUCGGAUUUUCGGCGGAUGCCUCCAAA [A14C G35A A52G] was below 1e-05 s⁻¹.
On the same count and under the same terms, in the case of AUAAAAGCGCCAGAACUACAGCAAUGUAGUUGAGGAGGAGGCGGUUUAUUGAAUUUUCGGCGGAUUCUGGUAAA [A22C C34G A42C C50U G66U C68U U69G C70G C71U] it was below 1e-05 s⁻¹.
On the same count and under the same terms, the value for AUAAAAGCGCAAGAACUACAGAAAUGUAGUUGACGAGGAGGAGGUUUAGCGAAUUUUCGGCGGAUGCCUCCAAA [C11A U49G] was below 1e-05 s⁻¹.
As for AUAAAAGCGCCAGAACUACAGAAAUGUAGUUGACGAGGAGGAGGUUUAUCGAAUUUUCAGCGGAUGCCCUCAAA [G59A U69C C70U], the “self-cleavage kobs at 2500 uM GlcN6P” value was below 1e-05 s⁻¹.
In the case of AUAAAAGCGCCAGUACUACAGAAAUGUAGUUGACGAGGAAGAAGGUUAUCGAAUUUUCGGCGGAUGCCUCCAAA [A14U G40A G43A U45G], the “self-cleavage kobs at 2500 uM GlcN6P” value is 0.000402 ± 8.4e-05 s⁻¹.
In the case of AUAAAAGCGCGAGAACUACAGAAAUGUAGUUGACGAGGAGAAGGUUUAUCGAAUUUUCGGCUGAUGCUUCCAAA [C11G G41A G62U C68U], the “self-cleavage kobs at 2500 uM GlcN6P” value was below 1e-05 s⁻¹.
The same measure, in the same setting: the value for AUAAAAGCGCCAAAACUACAGAAAUGUAGUUCACGAGGAGGAGGGUUAUCGAAUUUUCGGCGGAUGCCUCCAAA [G13A G32C U45G] was 4.68e-05 ± 1.9e-05 s⁻¹; that for AUAAAAGAGCCAGAACUACAGAAAUGUAGUUGACGAGGGGGAGGUUUUUCGAAUUUUCGGCGGAUGCCUCCAAA [C8A A39G A48U] was below 1e-05 s⁻¹; that for AUAAAAGCGCCAGUACUACAGAAAUGUAGAUGACGAGGCGGAGGUUUAUCGAAUUUUCGGCGGAUGCCUCCAAA [A14U U30A A39C] was 2.93e-05 ± 1.5e-05 s⁻¹.
Still for that read-out and setting: in the case of AUAAAAGCGCCAGAACUACAGAAAUGUAGUGGACGAGGAGGAGGUUUAUCGAAUUUUCGGAGGAUGACUCCAAA [U31G C61A C67A] it was 0.000101 ± 2.8e-05 s⁻¹.

In the next series the parent is B1. In words: self-cleavage kobs at 10000 uM GlcN6P; higher = faster cleavage; RNA array. Conditions: with glucosamine-6-phosphate. In outline: as §1
In the case of AUAAAAGCGCCAGAACUACAGAAAUGUAGUUGCCGAGCAGGAGGUUUUUCGAAUUUUCGGCGGAUGCCUCCAAA [A33C G38C A48U], the “self-cleavage kobs at 10000 uM GlcN6P” value was below 1e-05 s⁻¹.
